From IntAct's records for PubMed 20042240

B1: Complement factor H-related protein 4 (Homo sapiens), Q92496-1 (parent)
chain: MLLLINVILTLWVSCANGQEVKPCDFPEIQHGGLYYKSLRRLYFPAAAGQSYSYYCDQNFVTPSGSYWDYIHCTQDGWSPTVPCLRTCSKSDVEIENGFISESSSIYILNEETQYNCKPGYATAEGNSSGSITCLQNGWSTQPICIKFCDMPVFENSRAKSNGMWFKLHDTLDYECYDGYESSYGNTTDSIVCGEDGWSHLPTCYNSSENCGPPPPISNGDTTSFPQKVYLPWSRVEYQCQSYYELQGSKYVTCSNGDWSEPPRCISMKPCEFPEIQHGHLYYENTRRPYFPVATGQSYSYYCDQNFVTPSGSYWDYIHCTQDGWLPTVPCLRTCSKSDIEIENGFISESSSIYILNKEIQYKCKPGYATADGNSSGSITCLQNGWSAQPICIKFCDMPVFENSRAKSNGMRFKLHDTLDYECYDGYEISYGNTTGSIVCGEDGWSHFPTCYNSSEKCGPPPPISNGDTTSFLLKVYVPQSRVEYQCQSYYELQGSNYVTCSNGEWSEPPRCIHPCIITEENMNKNNIQLKGKSDIKYYAKTGDTIEFMCKLGYNANTSVLSFQAVCREGIVEYPRCE
partner: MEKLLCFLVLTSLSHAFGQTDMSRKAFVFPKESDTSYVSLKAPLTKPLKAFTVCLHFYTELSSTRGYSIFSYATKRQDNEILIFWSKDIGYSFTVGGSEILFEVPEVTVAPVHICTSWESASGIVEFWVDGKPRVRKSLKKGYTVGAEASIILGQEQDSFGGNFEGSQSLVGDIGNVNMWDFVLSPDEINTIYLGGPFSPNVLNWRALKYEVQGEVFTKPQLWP

What was measured:
Settings in all cases: with crp_human CRP
crp_human CRP, P02741 [1] = variants of: B1
crp_human CRP, P02741 [2] = variants of: B1; remark: listed apart in the source
crp_human CRP, P02741 [3] = variants of: B1; remark: listed apart in the source

Row | Variant | effect of a mutation on the interaction (crp_human CRP, P02741 [1]) | effect of a mutation on the interaction (crp_human CRP, P02741 [2]) | effect of a mutation on the interaction (crp_human CRP, P02741 [3])
1 | MLLLINVILTLWVSCANGQEVKPCDFPEIQHGGLYYAAARRLYFPAAAGQSYSYYCDQNFVTPSGSYWDYIHCTQDGWSPTVPCLRTCSKSDVEIENGFISESSSIYILNEETQYNCKPGYATAEGNSSGSITCLQNGWSTQPICIKFCDMPVFENSRAKSNGMWFKLHDTLDYECYDGYESSYGNTTDSIVCGEDGWSHLPTCYNSSENCGPPPPISNGDTTSFPQKVYLPWSRVEYQCQSYYELQGSKYVTCSNGDWSEPPRCISMKPCEFPEIQHGHLYYENTRRPYFPVATGQSYSYYCDQNFVTPSGSYWDYIHCTQDGWLPTVPCLRTCSKSDIEIENGFISESSSIYILNKEIQYKCKPGYATADGNSSGSITCLQNGWSAQPICIKFCDMPVFENSRAKSNGMRFKLHDTLDYECYDGYEISYGNTTGSIVCGEDGWSHFPTCYNSSEKCGPPPPISNGDTTSFLLKVYVPQSRVEYQCQSYYELQGSNYVTCSNGEWSEPPRCIHPCIITEENMNKNNIQLKGKSDIKYYAKTGDTIEFMCKLGYNANTSVLSFQAVCREGIVEYPRCE [K37A;S38A;L39A] | disrupting interaction strength | – | –
2 | MLLLINVILTLWVSCANGQEVKPCDFPEIQHGGLYYASLAALYFPAAAGQSYSYYCDQNFVTPSGSYWDYIHCTQDGWSPTVPCLRTCSKSDVEIENGFISESSSIYILNEETQYNCKPGYATAEGNSSGSITCLQNGWSTQPICIKFCDMPVFENSRAKSNGMWFKLHDTLDYECYDGYESSYGNTTDSIVCGEDGWSHLPTCYNSSENCGPPPPISNGDTTSFPQKVYLPWSRVEYQCQSYYELQGSKYVTCSNGDWSEPPRCISMKPCEFPEIQHGHLYYENTRRPYFPVATGQSYSYYCDQNFVTPSGSYWDYIHCTQDGWLPTVPCLRTCSKSDIEIENGFISESSSIYILNKEIQYKCKPGYATADGNSSGSITCLQNGWSAQPICIKFCDMPVFENSRAKSNGMRFKLHDTLDYECYDGYEISYGNTTGSIVCGEDGWSHFPTCYNSSEKCGPPPPISNGDTTSFLLKVYVPQSRVEYQCQSYYELQGSNYVTCSNGEWSEPPRCIHPCIITEENMNKNNIQLKGKSDIKYYAKTGDTIEFMCKLGYNANTSVLSFQAVCREGIVEYPRCE [K37A;R40A;R41A] | disrupting interaction strength | decreasing interaction strength | –
3 | MLLLINVILTLWVSCANGQEVKPCDFPEIQHGGLYYKAARRLYFPAAAGQSYSYYCDQNFVTPSGSYWDYIHCTQDGWSPTVPCLRTCSKSDVEIENGFISESSSIYILNEETQYNCKPGYATAEGNSSGSITCLQNGWSTQPICIKFCDMPVFENSRAKSNGMWFKLHDTLDYECYDGYESSYGNTTDSIVCGEDGWSHLPTCYNSSENCGPPPPISNGDTTSFPQKVYLPWSRVEYQCQSYYELQGSKYVTCSNGDWSEPPRCISMKPCEFPEIQHGHLYYENTRRPYFPVATGQSYSYYCDQNFVTPSGSYWDYIHCTQDGWLPTVPCLRTCSKSDIEIENGFISESSSIYILNKEIQYKCKPGYATADGNSSGSITCLQNGWSAQPICIKFCDMPVFENSRAKSNGMRFKLHDTLDYECYDGYEISYGNTTGSIVCGEDGWSHFPTCYNSSEKCGPPPPISNGDTTSFLLKVYVPQSRVEYQCQSYYELQGSNYVTCSNGEWSEPPRCIHPCIITEENMNKNNIQLKGKSDIKYYAKTGDTIEFMCKLGYNANTSVLSFQAVCREGIVEYPRCE [S38A;L39A] | disrupting interaction strength | – | decreasing interaction strength
